Key:
Conditions in all cases: FMN input: 0 or 200 uM; Eterna round: R93 (includes R88 designs)
MS2 coat protein [1] = test: apparent KD of MS2 coat protein, switch ON state; designed switch direction (-1 OFF switch, 1 ON switch): 1; higher = weaker reporter binding
Procedure, shortened: (§1)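 On-chip transcription from Illumina sequencing clusters produced the designed RNA switches. These were titrated with SNAP-549-labelled MS2 coat protein (twofold steps, 0.7 or 1.5 nM to 3 µM) in 100 mM Tris-HCl pH 7.5, 80 mM KCl, 4 mM MgCl2, with or without constant ligand. The apparent KD given is the per-design median of normalised cluster binding-curve fits.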

MS2 coat protein [2] = test: apparent KD of MS2 coat protein, switch OFF state (with FMN for OFF switches, without FMN for ON switches); designed switch direction (-1 OFF switch, 1 ON switch): 1; higher = weaker reporter binding
Procedure, shortened: as §1

MS2 coat protein [3] = test: apparent KD of MS2 coat protein, switch ON state; designed switch direction (-1 OFF switch, 1 ON switch): -1; higher = weaker reporter binding
Procedure, shortened: as §1

MS2 coat protein [4] = test: apparent KD of MS2 coat protein, switch OFF state (with FMN for OFF switches, without FMN for ON switches); designed switch direction (-1 OFF switch, 1 ON switch): -1; higher = weaker reporter binding
Procedure, shortened: as §1

Row | Sequence | apparent KD of MS2 coat protein (MS2 coat protein [1]) [nM] | apparent KD of MS2 coat protein (MS2 coat protein [2]) [nM] | apparent KD of MS2 coat protein (MS2 coat protein [3]) [nM] | apparent KD of MS2 coat protein (MS2 coat protein [4]) [nM]
1 | AGGAGACAUGAGGAUCACCCAUGUGAGAAGAGGCGAGGAUAUCGAAAGAAAGAAGAGAAACGAGAAGGCGCGAGGA [salish99-SS1-019] | 29.8 | 58.5 |  | 
2 | GUGAAGGAGAGAGAGGAUAUCCAAAGGAAAACAUGAGGAUCACCCAUGUAGAAGGUAGGAAAUUGGGAGAAGGCUCAAGAGAGAG [salish99-ss2-114] | 27 | 39.5 |  | 
3 | GGGAAGAAGAGAGAGGAUAUCCAAAGGAAAACAUGAGGAUCACCCAUGUAAAAGGAAGGAAAUUGGGAGAAGGCUCAAAAGAGGA [salish99-ss2-025] | 21.6 | 51.6 |  | 
4 | AAAAGACAUGAGGAUCACCCAUGUCAAAACAUAGGAGGAUAUGUCGUGAAAAAAGACUUGGCAGAAGGCCUUUGUC [SS1 - 48] | 17.3 | 19.3 |  | 
5 | AAUAACAAAAGAAAGGAUAUGCGCACAGGAACAUGAGGAUCACCCAUGUGGCCCGAAAGGGCAUAGCAGAAGGUUCACACGCAUA [Default title] | 32.7 | 42 |  | 
6 | GGAAAACAUGAGGAUCACCCAUGUAGAAAUAUGGGAGGAUAUACAAAGACGAAAGUCAAAGUAGAAGGCCUAAAAG [salish99-SS1-084] | 33.9 | 60.2 |  | 
7 | AAAAAAAAACGUGAGGAUAUGUGAAAAUUAACAUGAGGAUCACCCAUGUGAUAAAAAAAAAAAAAACAGAAGGUACAAAAAAAAAA [Same 2 again I have no idea] | 21.2 | 28.4 |  | 
8 | AAAAAGUAAGGAUAUGCGAAUAAAUAAGAAGAAGAAAGAAAGCAGAAGGUACAUGAGGAUCACCCAUGUAAAAA [Ex 4 Tesla 1] |  |  | 36.3 | 22.5
9 | AGCAUGUGAGGAUAUGUGACCCUCGUCCUAAGGAUGAGGAAAUAGAAGGCACAUGAGGAUCACCCAUGUGAUGA [Eratusar] |  |  | 65.4 | 293
10 | AAAGGCUUAGGAUAUACAGUGGUCCCAAUGGGCAUCCGAAAACAUGAGGAUCACCCAUGUAGAAGGAAGAAAAU [Raleor] |  |  | 68.5 | 64.7
11 | AGAGAGUCAGGAUAUACGAAAGAAAAGGGAAACAACAAGGGACAUGAGGAUCACCCAUGUAGAAGGGACGAGAA [Diamond 99] |  |  | 99.8 | 49.8
12 | AAAAAACAUGAGGAUCACCCAUGUGAGGAUAUGCAAAAAAAAAAAAAAAAAUAAAAAAGCAGAAGGCACAAAAA [Sh'dynasty] |  |  | 30.6 | 33.2
13 | ACAUGUACAGGAUAUACAUGGAAAAAAAAAAAAAAAAAACUACAUGAGGAUCACCCAUGUAGAAGGGUACAUGA [Ex2 Design 193: Random 12B] |  |  | 25.8 | 25.7
14 | GAAUGCAGAGGAUAUACGGGAUAGCAUCGAAAGAUGCUAAAACAUGAGGAUCACCCAUGUAGAAGGCUGCAGAA [JL Mod 02] |  |  | 58 | 144
15 | AAGGGACAUGAGGAUCACCCAUGUAAGGAUAUCGGAAAAGGAAAAAAAAAAAAUAAGACGAGAAGGUACAAAAA [Mat - Exclusion 1 - Eli mod - D80] |  |  | 70.2 | 73.5
16 | CUCUAGUUAGGAUAUGGAAGAAAAGAAAAGAAAGAAAAGAACCAGAAGGAACAUGAGGAUCACCCAUGUAAGAA [EteRNA is fun!] |  |  | 45.5 | 34
17 | AAAAACGUAGGAUAUACAUGAAAAAAAAAAAAAAAAAAAAGACAUGAGGAUCACCCAUGUAGAAGGGCGAAAAA [water's exclusion 2] |  |  | 91.9 | 76.8
18 | AAAAACGGAGGAUAUGCAAAAAAAAAAAAAAAAAAAAAAAAACAUGAGGAUCACCCAUGUAGAAGGCCGAAAAA [Diamond] |  |  | 25.6 | 36.9
19 | GGAAAACAUGAGGAUCACCCAUGUAAGGAUAUGCAAAAAAAAAAGGAUAUAGAAGGAAGCAGAAGGUACAAAGG [salish99-ex1-28] |  |  | 24.5 | 55.1
20 | GUAGAGUGAGGAUAUGAAUAAAAGAAGAGAAAGAGAAAGCAUCAGAAGGCACAUGAGGAUCACCCAUGUAUGAA [JR_Exc004_Sub1225] |  |  | 29.2 | 25.3
21 | AAAAAGUCAGGAUAUGCAGAUAAAAAAACGAAAAAAAAUCUGCAGAAGGGACAUGAGGAUCACCCAUGUAAAAA [Ex 4 May 5] |  |  | 48.5 | 40.4
22 | AAAAAGGCAGGAUAUGCAUACCCACGAAAAAAAACGCUGGGACAUGAGGAUCACCCAUGUAGAAGGGCCAAAAA [Dora Explored 11 - Jieux - Exclusion 2] |  |  | 54 | 28.2

Row | Sequence | apparent KD of MS2 coat protein (MS2 coat protein [1]) [nM] | apparent KD of MS2 coat protein (MS2 coat protein [2]) [nM] | apparent KD of MS2 coat protein (MS2 coat protein [3]) [nM] | apparent KD of MS2 coat protein (MS2 coat protein [4]) [nM]
23 | AACAGUACAGGAUAUACAUGAGGAUCACCCAUGUGAAAUAAAAGUGGCGUACCACAAAGUAGAAGGGUACUGAA [Mat - Exclusion 3 - JL mod - D27] |  |  | 27.1 | 90.5
24 | ACUAUACGAGGAUAUGCUGUCAACACUAAGGAAUUCGUAUGACAUGAGGAUCACCCAUGUAGAAGGCGUAUACU [JR_Exc002_Sub510] |  |  | 23.3 | 27.7
25 | AAAAAGUCAGGAUAUCGGAAAAAAAAAAAAAAAAAAAAAAACGAGAAGGGACAUGAGGAUCACCCAUGUAUGAC [Ex 4 May 7] |  |  | 56.9 | 243
26 | AGCUAGUCAGGAUAUACAAACAUGUCAAAAGACGUGAAGAAACAUGAGGAUCACCCAUGUAGAAGGGACUAGCA [Mat - Exclusion 2 - JL mod - D16] |  |  | 19.9 | 14.5
27 | AAAAUACAUGAGGAUCACCCAUGUGAGGAUAUGCUAUGGAAAAUAAAAAUAAAACAUAGCAGAAGGCACAAAAA [Denovo 13] |  |  | 37 | 56.7
28 | CUCUAGUGAGGAUAUACAAGAAAAGAAAAGAAAGAAAAGAAGUAGAAGGCACAUGAGGAUCACCCAUGUAAGAA [EteRNA is fun!] |  |  | 24.8 | 30.2
29 | GAAAAGUCAGGAUAUGCAGACAAAGCAAAAAAGCAAUGUCUGCAGAAGGGACAUGAGGAUCACCCAUGUAAAAG [Mat - Exclusion 4 - Mayanna - D116] |  |  | 61.1 | 70.1
30 | AAGAAUCGAGGAUAUACAUGAGGAUCACCCAUGUAAAAGAAAGAAAGGGAAAAGAAAAGUAGAAGGCGAAAGAA [Usermaatre-setepenre Shoshenq III] |  |  | 23.4 | 23.6
31 | AACAAGACAGGAUAUACAUGAGGAUCACCCAUGUGAGAAUAAAGUAGCGUAACACAAAGUAGAAGGGUCAUGGA [Ruby 7] |  |  | 29.7 | 57.6
32 | AAAAAGCGAGGAUAUACAUAGCUAAGACGUGUGAGCGAAAAACAUGAGGAUCACCCAUGUAGAAGGCGCAAAAA [Exclusion2-03] |  |  | 18.2 | 16.9
33 | AAAAAACAUGAGGAUCACCCAUGUCAGGAUAUCCGGUUAAAAAAAAAAAAAAGGCGUUGGAGAAGGGACAUUCC [Chica Displaced 9 - Jieux - Exclusion 1] |  |  | 25.7 | 33.4
34 | CCGAGACAUGAGGAUCACCCAUGUGAGGAUAUAGGUGUAUGCAAAAAAAAGUUAAAAACUAGAAGGCACAGAGG [JR_Exc001_Sub307] |  |  | 37 | 30.9
35 | AACAGUACAGGAUAUACAUGAGGAUCACCCAUGUGAGAAUUAAGUGGAGAACCACAAAGUAGAAGGGUACUGGA [Mat - Exclusion 3 - JL mod - D2] |  |  | 37.1 | 250
36 | AGGAGACAUGAGGAUCACCCAUGUUAGGAUAUGAACGAAAAUAAAUAAAAAUAAAAGUUCAGAAGGAACGAAAA [66%, Wbt, 9] |  |  | 45.1 | 45.2
37 | AAAUUAGCAGGAUAUACUAGGGUCCACCGAACUCUGAAAAGACAUGAGGAUCACCCAUGUAGAAGGGCUUCGAA [Atileso] |  |  | 30 | 97.6
38 | AAAAAGAAAGGAUAUACGAACAUGUCAAAAGACGUGAAGGGACAUGAGGAUCACCCAUGUAGAAGGUUCAAAAA [JL Half Open 22] |  |  | 35.8 | 17.1
39 | UACGGACAUGAGGAUCACCCAUGUGAGGAUAUCGAUACCGAUAGCAUAAUAUAAUCGGCGAGAAGGCACAGCGU [JR_Exc001_Sub505] |  |  | 39.9 | 54.7
40 | CCUGAACAUGAGGAUCACCCAUGUGAGGAUAUGAUGCGAAUAAAGAAAGAAGAAAGCAUCAGAAGGCACAUAGG [Mod of Disincluded 3 v.4] |  |  | 28 | 43.4
41 | AGUUGGCGAGGAUAUACAUGAGGAUCACCCAUGUGAGAGAAAAAAAGAAGAAAAAAAAGUAGAAGGCGCUGACA [Mat - Exclusion 3 - Lego mod - D43] |  |  | 44.2 | 103
42 | AUAAACUGAGGAUAUACAUGAGGAUCACCCAUGUAAAAAAAGAAAUGAUCCUCAGGAAGUAGAAGGCAGAAUAA [JR_Exc003_Sub017] |  |  | 13.2 | 28.3
43 | AACAGGACAGGAUAUACAUGAGGAUCACCCAUGUAGGAACAAAGCAGAGUACCAAACAGUAGAAGGGUCAUGGA [Ruby 28] |  |  | 34.2 | 37.2

Source: the supplement of paper PMC9170038
